Measured values from patent publication US20250355001A1 (GTINVENT, published 2025).
Read-outs that look alike come from different tables or passages of the source.

T1: biotinylated tau peptide 412-441 (N-terminal biotin)
T1 peptide: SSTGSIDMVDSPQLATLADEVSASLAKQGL

T2: tau fragment 1-49 (human)
T2 construct: also called Tau 1-49
T2 peptide: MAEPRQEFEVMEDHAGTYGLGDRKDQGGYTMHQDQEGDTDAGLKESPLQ


Tests used:
tau fragment 1-155 = tau fragment 1-155 (human, UniProt P10636 1-472); assay: direct ELISA
Method: (§1) A series of binding ELISA was performed using various truncated versions of the tau protein and 13mer peptide libraries spanning the entire hT40 molecule for mapping the epitopes of anti-tau scAbs (Full list of protein antigens used is given in Table 14). In general, ELISA plates were coated with 1 μg/ml hT40 or dGA or dGAE or other truncated versions of the protein and in the case of biotinylated peptides, plates were coated with 5 μg/ml Streptavidin followed by 1 μg/ml biotinylated peptide. The plates were blocked with 2% MPBS and scAb samples added at desired starting concentrations and double diluted across the plate. Binding was detected using anti-Human C Kappa HRP conjugated secondary antibody and the resulting immunoreaction was developed and absorbance values measured as described above.

[1] = biological target: T3, full length human tau protein 2N4R (hT40) (human, UniProt P10636 1-758); assay: SPR, scAb captured, tau analyte
T3 construct: recombinant; also called T441
Method: (§2) The capture antibody was diluted 1/100 in 10 mM Sodium acetate buffer pH 5.0 and passed over the activated chip surface for a period of at least 420 s. Final ligand immobilisation levels over 12,000 RU were deemed to be satisfactory.
(§3) The scAb to be tested was added only to flow cell 2 so that flow cell 1 could act as a control to subtract any interaction with the analyte and the chip surface. […] The multi-cycle protocol was as follows-Three start-up cycles composed of an initial capture, to the desired level, of the scAb to be tested was performed followed by a 30 s injection of glycine buffer pH 2.0 after each cycle to regenerate the chip surface. […] The target was added for a 120 s association period and 420 s dissociation period followed by another regeneration, 30 s injection of glycine buffer pH 2.0 in between each cycle.
(§4) The single cycle kinetics protocol was similar and utilised the same level of scAb capture. […] In single cycle kinetics the regeneration step was performed only after the final analyte concentration was added. Binding responses were analysed in Biacore X100 evaluation software and data fitted to a 1:1 binding model to obtain kinetic and affinity characterisation.
Target sequence in this assay (P10636 other isoform, or with tags, fused parts or gaps limits assumed): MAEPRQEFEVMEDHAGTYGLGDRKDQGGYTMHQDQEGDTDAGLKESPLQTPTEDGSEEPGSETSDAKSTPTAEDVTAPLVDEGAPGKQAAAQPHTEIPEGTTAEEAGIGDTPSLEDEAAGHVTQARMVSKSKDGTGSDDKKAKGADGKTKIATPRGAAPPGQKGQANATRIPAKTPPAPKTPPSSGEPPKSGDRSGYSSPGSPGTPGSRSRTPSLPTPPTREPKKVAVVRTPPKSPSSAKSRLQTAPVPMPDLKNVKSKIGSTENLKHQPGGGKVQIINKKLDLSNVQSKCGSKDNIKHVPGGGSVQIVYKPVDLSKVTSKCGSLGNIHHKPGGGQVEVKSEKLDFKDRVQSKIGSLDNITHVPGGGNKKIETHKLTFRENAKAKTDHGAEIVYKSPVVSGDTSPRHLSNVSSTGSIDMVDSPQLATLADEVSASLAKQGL

aggregated dGAE [2] = biological target: T4, aggregated dGAE (human, UniProt P10636 614-708, limits assumed); assay: ELISA, direct immobilisation, SDS + Triton treated dGAE aggregates
T4 construct: dGAE aggregated in vitro with DTT, 700 rpm, 37 C, 24 h; also called dGAE aggregates; dGAE agg
T4 sequence (P10636 614-708 limits assumed): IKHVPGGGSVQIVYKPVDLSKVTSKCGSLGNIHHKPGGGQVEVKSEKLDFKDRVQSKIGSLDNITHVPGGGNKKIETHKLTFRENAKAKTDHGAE

[3] = biological target: T3, full length human tau protein 2N4R …; assay: hT40 ELISA
Target sequence in this assay (P10636 other isoform, or with tags, fused parts or gaps limits assumed): as the sequence (P10636 other isoform, or with tags, fused parts or gaps limits assumed) above

aggregated dGAE [4] = biological target: T4, aggregated dGAE; assay: sandwich ELISA, S1D12 mAb capture, SDS + Triton treated dGAE aggregates
Method: For aggregation, 1000 μL 100 μM dGAE+10 μL 10 mM DTT was added to a ‘LoBind’ microfuge tubes and agitated at 700 RPM/37° C. for 24 hours. Resulting sample centrifuged at 17,000×g/4° C. for 60 min and supernatant discarded to remove left over monomer. Pellet resuspended in half the original volume for future experiments and hereafter referred to as ‘aggregates’. 1 μl of aggregates was added to 1 ml of PBS and SDS was added to a final concentration of 1% (w/v). This was left to incubate on lab bench for 1 h with gentle agitation every 15 minutes. In order to neutralize the SDS effect on ELISA, Triton X-100 added to a final concentration of 3% (v/v) and mixed gently by pipetting to prevent any bubble formation. […] Similarly aggregates treated with only SDS or Triton X-100, untreated aggregates, dGAE monomers treated with only SDS or SDS+Titon X-100 were also added to designated wells as controls. All samples were then double diluted across the plate in final volumes of 100 μl. The final column was left with no protein to act as a blank.

[5] = biological target: T1, biotinylated tau peptide 412-441; assay: ELISA on biotinylated 412-441 peptide
Method: as §1

[6] = biological target: T3, full length human tau protein 2N4R …; assay: SPR, summary table
Method: as §2, §3, §4
Target sequence in this assay (P10636 other isoform, or with tags, fused parts or gaps limits assumed): as above

[7] = biological target: T3, full length human tau protein 2N4R …; assay: hT40 ELISA; remark: listed apart in the source
Method: as §1

[8] = biological target: T3, full length human tau protein 2N4R …; assay: sandwich ELISA, S1D12 mAb capture, scAb detection
Method: Full length tau (hT40), at 1 μg/ml starting concentration was added to designated wells and double diluted across rest of the plates and left to incubate at R/T for 1 h. A series of detection scAbs with varying epitope recognition properties were added at 10 μg/ml to designated wells (FIG. 22). For colourimetric detection HRP conjugated anti-HuCk secondary antibody was used and the resulting immunoreaction was developed and absorbance at 450 nm measured as described previously. Cut-off point for a positive binding event was an absorbance value of 0.3 following background subtraction. In order to enhance the assay sensitivity, a chemiluminescent detection method was adopted where 50 μL SuperSignal ELISA Femto Substrate (Thermo Scientific) was added to each well following incubation with anti-HuCK HRP antibody and subsequent washing. The luminescence was read using Clariostar Plus microplate reader. A further modification to this protocol was done where various detection scAbs were directly conjugated with HRP and detected using chemiluminescent protocol as before.
Target sequence in this assay (P10636 other isoform, or with tags, fused parts or gaps limits assumed): as above

[9] = biological target: T3, full length human tau protein 2N4R …; assay: hT40 ELISA; remark: listed apart in the source
Target sequence in this assay (P10636 other isoform, or with tags, fused parts or gaps limits assumed): as above

[10] = biological target: T3, full length human tau protein 2N4R …; assay: Biacore
Method: as §2, §3, §4
Target sequence in this assay (P10636 other isoform, or with tags, fused parts or gaps limits assumed): as above

tau fragment 1-49 = biological target: T2, tau fragment 1-49; assay: direct ELISA
Method: as §1

[11] = biological target: T3, full length human tau protein 2N4R …; assay: direct ELISA
Method: as §1

dGA (tau 297-390) = dGA (tau 297-390) (human, UniProt P10636 614-707); assay: direct ELISA
Chain of dGA (tau 297-390) (P10636 614-707 limits assumed): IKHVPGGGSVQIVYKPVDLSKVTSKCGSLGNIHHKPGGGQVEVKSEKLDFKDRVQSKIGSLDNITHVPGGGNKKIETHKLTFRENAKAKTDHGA
Method: as §1

dGAE (tau 297-391) = biological target: T5, dGAE (tau 297-391) (human, UniProt P10636 614-708); assay: SPR, scAb captured, tau analyte
T5 construct: monomer; also called dGAE95
T5 sequence (P10636 614-708 limits assumed): as the sequence (P10636 614-708 limits assumed) above
Method: as §2, §3, §4

Binder	Kd [1] [nM]	koff [1] [s⁻¹]	kon [1] [M⁻¹ s⁻¹]	EC50 (read off the curve) [5] [µg/mL]	binding result (tau fragment 1-49)	other results
3aB7 scAb (scFv, not shown: small tags and cut ends, scAb) scFv: QVQLQESGPSLVKPSQTLSLTCTVSGFSLTSNGVGWVRQAPGKVPEWVGDKSSAGKTYGNPALKSRLSITRDTSKSQVSLSLSSVTTEDTAVYYCVRCRDGGVTYGYDVDYWGPGLLVTVSSEGKSSGASGESKVDDQAVLTQPSSVSKSLGQSVSITCSGSSSNVGYGDVVSWFQQFPGSAPKLLIFGTTTRASGVPDRFSGSRSGNAATLTINSLQAEDEADYYCASFDSDSGGIAGSGTRLTVLG	69	0.0143	207000			EC50 (read off the curve) (tau fragment 1-155): ~0.8 µg/mL
CA12 scAb (scFv, not shown: small tags and cut ends, scAb) scFv: QVQLQGSGPSLVKPSQTLSLTCTVSGFSFDSYYVGWVRQAPGKALEWLGNIYSTGRAFYNPALKSRLSITRDTSKSQVSLSVSSVTIEDTALYYCVRGSYYHGGGNGMVDFFDYWSPGLLVTVSSEGKSSGASGESKVDDQVVRTQPSSVSGSLGQRVSITCSGSSSNVGYGNYVGWFQQVPGSAPKLLIYAATSRASGVPDRFSGSRSGNTATLTIDSLQAEDEADYYCSSYQRGNTGVFGSGTRLTVLG						LoD (aggregated dGAE [2]): 16 ng/mL; EC50 (read off the curve) [3]: ~0.02 µg/mL; LoD (aggregated dGAE [4]): 2 ng/mL
412B9 (scFv) scAb: QVQLQESGPSLVKPSQTLSLTCTVSGFSVISDSVAWVRQAPGKVPEWLGASGSSGNKYYNPALKSRLSITRDTSKSQVSLSLSSVTTEDTAVYYCARGIIAGVDVWGRGLLVSVSSEGKSSGASGESKVDDQAVLTQPSSVSGALGQRVSITCSGSSSNVGYGDYVGWYQQVPGSAPKLLIYGAASRASGVPDRFSGSRSGNTATLTISSLQAEDEADYYCASYDSSDGGVFGSGTRLTVLG				~2		
3bF4 scAb (scFv, not shown: small tags and cut ends, scAb) scFv: QVQLQESGPSLVKPSQTLSLTCTVSGFSLSSNGVGWVRQAPGKVPEWLGDISSVGKKYANPALKSRLSFTRDTSKSQVSLSLSSVTTEDTAVYYCVKCRDGGVTYGYDIDYWGPGLLVTVSSEGKSSGASGESKVDDQAVLTQPSSVSKSTGQTVSITCSGSSSNVGLRNYVTWFQQVPGSAPKLLIYGATSRASGIPDRFSGSRSGNTATLIISSLQAEDEADYYCASADTNDGGVFGSGTRLTVLG	140	0.0153	109000			EC50 (read off the curve) (tau fragment 1-155): ~1 µg/mL
412E10 scAb (scFv, not shown: small tags and cut ends, scAb) scFv: QVQLQESGPSLVKPSQTLSLTCTVSGFSVISDSVAWVRQAPGKVPEWLGASGSSGNKYYNPALKSRLSITRDTSKSQVSLSLSSVTTEDTAVYYCARGIIAGVDVWGRGLLVTVSSEGKSSGASGESKVDDQAVLTQPSSVSGSLGQRVSITCSGSSSNVGYGNYVGWYQQVPGSAPKLLIYGTAIRASGVPDRFSGSRSGDTATLTITSLQAEDEADYYCASYQSNYAFFGSGTRLTVLG	3.16	0.00085	271000	~0.4		Kd [6]: 3.16 nM; EC50 (read off the curve) [7]: ~1 µg/mL; LoD chemiluminescence detection [8]: 0.37 ng/mL; LoD colourimetric detection [8]: 20 ng/mL; EC50 (read off the curve) [9]: ~1 µg/mL; Kd [10]: 3.3 nM
3aD3 scAb (scFv, not shown: small tags and cut ends, scAb) scFv: QVQLQESGPSLVKPSQTLSLTCTVSGFSLTSNGVGWVRRAPGKVPEWVGDISSGGKVYGHPALKSRLSITRDTSKSQVSLSVSSVTSEDTAVYYCVRCRDGGVSYGYDSDYWGPGLLVTVSSEGKSSGASGESKVDDQAVVTQPSSVSKSLGQSVSITCSGSSSNVGYGDYVGWFQQVPGSAPKLLIYGVTERASGVPDRFSGSRSGNTATLTISSIQAEDEADYYCASYDDSSGGIFGSGTRLTVLG	19.1	0.0104	544000		binds	
412E6 (scFv) scAb: QVQLQESGPSLVKPSETLSLTCTVSGFSLTNYGVGWVRQAPGKALEWLGNIYSGGSTYYNPALKSRLSITRDTSKSQVSLSLNSVTLEDTAVYYCGRGGVGSVDVWGPGLLVTVSSEGKSSGASGESKVDDQAVLTQPPSVSGSPGQRVSITCSGGRNNIGRGTFVDWYQQLPGSGLKTVIYGTDRRPPGVPDRFSGSKTGNAATLTITSLQAEDEADYWCATYDYSNDMIILGSGTRLTVLG				~2		EC50 (read off the curve) [7]: ~6 µg/mL; EC50 (read off the curve) [9]: ~6 µg/mL
3aH6 scAb (scFv, not shown: small tags and cut ends, scAb) scFv: QVQLQESGPSLVKPSQTLSLTCTVSGFSLSSNGVGWVRQAPGKVPEWLGDISSVGKKYANPALKSRLSFTRDTSKSQVSLSLSSVTTEDTAVYYCVKCRDGGVTYGYDIDYWGPGLLVTASSEGKSSGASGESKVDDQAVVTQPSSVSGSLGQSVSITCSGSSGNVGYGDYVSWFQQFHGSAPKLLIYGATNLASGVPARFSGSRSGNTATLTISSLHAEDEADYYCASYDSSSGGVFGSGTRLTVLG	3.6	0.00987	2.76e+06		binds	
3bG4 scAb (scFv, not shown: small tags and cut ends, scAb) scFv: QVQLQESGPSLVKPSQTLSLTCTISGFSLISNGVGWVRQAPGKVPEWVGDIASSGKAYSNPALKSRLSITRDTSKSQVSLSLRSVTTEDTAVYYCVRCRDGGVTYGYDIDYWGPGLLVTVSSEGKSSGASGESKVDDQAVLTQPSSVSKSLGQSVSITCSGSTSNVGSGNDVSWFQQVPGSAPKLLFYGATNRASGVPDRFSGSRSGNTATLTITSLQAEDEADYYCGSYDSNSGGIFGSGTRLTVLG	8.9	0.0597	6.67e+06		binds	
E1E8 scAb (scFv, not shown: small tags and cut ends, scAb) scFv: QVQLQESGPSLVKPSQTLSLTCTVSGFSLTDWGVAWVRQAPGKALEWLGTMRSGGTTDDNPALKSRLSITRDTSKSQVSLSLSSVTTEDMAMYYCARGYLSGVHYAWGRGLLVTVSSEGKSSGASGESKVDDQAVLTQPSSVSGSLGQSVSITCSGSSSNVGDGRYVSWFQQVPGSAPKLLIYDTTSRASGVPDRFSGSRSGNTATLIITSLQAEDEADYYCASIDSGNNLLFGSGTRLTVLG						binding result [11]: no binding (tested: 25 ug/ml); binding result (dGA (tau 297-390)): no binding (tested: 25 ug/ml); Kd (dGAE (tau 297-391)): 6.3 nM; koff (dGAE (tau 297-391)): 0.0014 s⁻¹; kon (dGAE (tau 297-391)): 154000 M⁻¹ s⁻¹
